Here are results for one molecule from patent publication US20030059827A1 (published 2003).

This test concerns the target T1, GFP (non-modified EGFP) (UniProt P42212 1-238 = GFP).
T1 construct: also called GFP alone; original GFP
Description: affinity chromatography on Ni-NTA-bound PDZ, Western blot with anti-GFP. The source says: To carry out the affinity chromatography assay, bacterially-expressed PDZ domains and EGFP derivatives were produced and fused to the different target peptides. The original and modified PDZ domains were expressed in E. coli XL1-Blue as fusions with 6XHis. The EGFP-peptides fusions were expressed in E. coli BL21 as described in Sambrook et al, 1989, Molecular Cloning: A Laboratory Manual, 2nd Ed., Vol 3. The bacterially expressed PDZ domains were then bound to nickel resin (Ni-NTA agarose, Quiagen) as described by the manufacturer. The resin-bound PDZ domains were then incubated with E.coli extracts made from bacteria expressing each of the target peptide-GFP fusions and washed four times with 50 mM NaH₂PO₄, 300 mM NaCl; 20 mM Imidazole; 0,1% of TritonX-100 to remove any unbound proteins. The bound proteins were eluted using 50 mM NaH₂PO₄, 300 mM NaCl; 200 mM Imidazole and analyzed by Western blot using antibodies against GFP to determine the presence of EGFP fused to the target peptide.
A general note: A western blot detects proteins with antibodies after separation by electrophoresis.

B1: PDZ-3, third PDZ domain of mouse PSD-95 (amino acids 302-402) fused to polyhistidine (6XHis), from plasmid pQEPDZ-3 (other)
chain: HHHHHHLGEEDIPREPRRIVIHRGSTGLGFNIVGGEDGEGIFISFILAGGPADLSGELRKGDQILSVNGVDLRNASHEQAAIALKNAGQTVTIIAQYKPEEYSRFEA
notes: range 302-402; also called original PDZ domain; the original PDZ
B1: the binding result is reported as “no binding”.
